Results as given in US10801046B2, “Methods and materials for biosynthesizing multifunctional, multivariate molecules via carbon chain modification” (INVISTA NORTH AMERICA S.A.R.L., priority 2016, dated 2020).

Columns and labels:
Type in all cases: biochemical
[1] = Carboxylate reductase activity, heptanedioate to 7-oxoheptanoate, NADPH consumption at 340 nm; conditions: enhanced by gene product of sfp, 2 mM substrate, 20 min, against empty vector control, FIG. 43
Protocol: A sequence encoding a HIS-tag was added to the genes from Segniliparus rugosus and Segniliparus rotundus that encode the carboxylate reductases of SEQ ID NOs: 31 (GenBank Accession No. EFV11917.1) and 38 (GenBank Accession No. ADG98140.1), respectively, such that N-terminal HIS tagged carboxylate reductases could be produced. Each of the modified genes was cloned into a pET Duet expression vector along with a sfp gene encoding a HIS-tagged phosphopantetheine transferase from Bacillus subtilis, both under the T7 promoter. Each expression vector was transformed into a BL21[DE3] E. coli host and the resulting recombinant E. coli strains were cultivated at 37° C. in a 250 mL shake flask culture containing 50 mL LB media and antibiotic selection pressure, with shaking at 230 rpm. Each culture was induced overnight at 37° C. using an auto-induction media.
The pellet from each induced shake flask culture was harvested via centrifugation. Each pellet was resuspended and lysed via sonication, and the cell debris was separated from the supernatant via centrifugation. […]
Enzyme activity assays (i.e., from heptanedioate to 7-oxoheptanoate) were performed in triplicate in a buffer composed of a final concentration of 50 mM HEPES buffer (pH=7.5), 2 mM heptanedioate, 10 mM MgCl2, 1 mM ATP, and 1 mM NADPH. […] The consumption of NADPH was monitored by absorbance at 340 nm.

[2] = Carboxylate reductase activity, 7-oxoheptanoate to heptanedial, NADPH consumption at 340 nm; conditions: enhanced by gene product of sfp, 2 mM substrate, 20 min, against empty vector control, FIG. 46
Protocol: The N-terminal His-tagged carboxylate reductase of SEQ ID NO: 38 (GenBank Accession No. ADG98140.1) (see Example 4) was assayed using 7-oxoheptanoate as substrate. The enzyme activity assay was performed in triplicate in a buffer composed of a final concentration of 50 mM HEPES buffer (pH=7.5), 2 mM 7-oxoheptanoate, 10 mM MgCl2, 1 mM ATP and 1 mM NADPH. The enzyme activity assay reaction was initiated by adding purified carboxylate reductase and phosphopantetheine transferase or the empty vector control to the assay buffer containing the 7-oxoheptanoate and then incubated at room temperature for 20 min. The consumption of NADPH was monitored by absorbance at 340 nm.

[3] = Carboxylate reductase activity, N7-acetyl-7-aminoheptanoate to N7-acetyl-7-aminoheptanal, NADPH consumption at 340 nm; conditions: enhanced by gene product of sfp, 2 mM substrate, 20 min, against empty vector control, FIG. 45
Protocol: The activity of each of the N-terminal His-tagged carboxylate reductases of SEQ ID NOs: 29 (GenBank Accession No. ABK71854.1), 37 (Genbank Accession No. EIV11143.1), and 38 (GenBank Accession No. ADG98140.1) (see Examples 4) for converting N7-acetyl-7-aminoheptanoate to N7-acetyl-7-aminoheptanal was assayed in triplicate in a buffer composed of a final concentration of 50 mM HEPES buffer (pH=7.5), 2 mM N7-acetyl-7-aminoheptanoate, 10 mM MgCl2, 1 mM ATP, and 1 mM NADPH. The assays were initiated by adding purified carboxylate reductase and phosphopantetheine transferase or the empty vector control to the assay buffer containing the N7-acetyl-7-aminoheptanoate then incubated at room temperature for 20 min. The consumption of NADPH was monitored by absorbance at 340 nm.

[4] = Carboxylate reductase activity, 7-hydroxyheptanoate to 7-hydroxyheptanal, NADPH consumption at 340 nm; conditions: enhanced by gene product of sfp, 20 min, against empty vector control, FIG. 44
[5] = Esterase activity assay, monomethyl heptanedioate to heptanedioic acid, LC-MS; conditions: esterase assays
Protocol: A nucleotide sequence encoding a C-terminal His-tag may be added to the gene from Bacillus subtilis encoding the esterase of SEQ ID NO: 50 (NCBI Reference Sequence: NP_388108.1) such that a C-terminal HIS tagged esterase is produced. The resulting modified gene is cloned into a pET28b+ expression vector under control of the T7 promoter and the expression vector is transformed into a BL21[DE3] E. coli host. The resulting recombinant E. coli strain can be cultivated at 37° C. in a 500 mL shake flask culture containing 100 mL LB media and antibiotic selection pressure, with shaking at 230 rpm. Each culture is induced overnight at 18° C. using 0.3 mM IPTG.
The pellet from each induced shake flask culture can be harvested via centrifugation. Each pellet is resuspended and lysed via sonication. The cell debris is separated from the supernatant via centrifugation. The esterase can be purified from the supernatant using Ni-affinity chromatography, buffer exchanged and concentrated into 20 mM HEPES buffer (pH=7.5) via ultrafiltration and stored at 4° C.
Enzyme activity assays converting monomethyl heptanedioate to heptanedioic acid are performed in triplicate in a buffer composed of a final concentration of 25 mM Tris-HCl buffer (pH=7.0) and 5 [mM] monomethyl heptanedioic acid. […] The formation of heptanedioic acid can be quantified via LC-MS.

B1: SEQ ID NO: 38: Segniliparus rotundus carboxylate reductase (protein, listed as Segniliparus rotundus)
chain: MTQSHTQGPQASAAHSRLARRAAELLATDPQAAATLPDPEVVRQATRPGLRLAERVDAILSGYADRPALGQRSFQTVKDPITGRSSVELLPTFDTITYRELRERATAIASDLAHHPQAPAKPGDFLASIGFISVDYVAIDIAGVFAGLTAVPLQTGATLATLTAITAETAPTLFAASIEHLPTAVDAVLATPSVRRLLVFDYRAGSDEDREAVEAAKRKIADAGSSVLVDVLDEVIARGKSAPKAPLPPATDAGDDSLSLLIYTSGSTGTPKGAMYPERNVAHFWGGVWAAAFDEDAAPPVPAINITFLPLSHVASRLSLMPTLARGGLMHFVAKSDLSTLFEDLKLARPTNLFLVPRVVEMLYQHYQSELDRRGVQDGTREAEAVKDDLRTGLLGGRILTAGFGSAPLSAELAGFIESLLQIHLVDGYGSTEAGPVWRDGYLVKPPVTDYKLIDVPELGYFSTDSPHPRGELAIKTQTILPGYYKRPETTAEVFDEDGFYLTGDVVAQIGPEQFAYVDRRKNVLKLSQGEFVTLAKLEAAYSSSPLVRQLFVYGSSERSYLLAVIVPTPDALKKFGVGEAAKAALGESLQKIARDEGLQSYEVPRDFIIETDPFTVENGLLSDARKSLRPKLKEHYGERLEAMYKELADGQANELRDIRRGVQQRPTLETVRRAAAAMLGASAAEIKPDAHFTDLGGDSLSALTFSNFLHDLFEVDVPVGVIVSAANTLGSVAEHIDAQLAGGRARPTFATVHGKGSTTIKASDLTLDKFIDEQTLEAAKHLPKPADPPRTVLLTGANGWLGRFLALEWLERLAPAGGKLITIVRGKDAAQAKARLDAAYESGDPKLAGHYQDLAATTLEVLAGDFSEPRLGLDEATWNRLADEVDFISHPGALVNHVLPYNQLFGPNVAGVAEIIKLAITTRIKPVTYLSTVAVAAGVEPSALDEDGDIRTVSAERSVDEGYANGYGNSKWGGEVLLREAHDRTGLPVRVFRSDMILAHQKYTGQVNATDQFTRLVQSLLATGLAPKSFYELDAQGNRQRAHYDGIPVDFTAESITTLGGDGLEGYRSYNVFNPHRDGVGLDEFVDWLIEAGHPITRIDDYDQWLSRFETSLRGLPESKRQASVLPLLHAFARPGPAVDGSPFRNTVFRTDVQKAKIGAEHDIPHLGKALVLKYADDIKQLGLL
modifications: Segniliparus rotundus (strain ATCC BAA-972 / CDC 1076 / CIP 108378 / DSM 44985 / JCM 13578)
notes: Segniliparus rotundus carboxylate reductase
In the case of B1, the “acceptance of heptanedioate as substrate, forming 7-oxoheptanoate” value [1] is reported as “accepted heptanedioate as substrate”, the “acceptance of 7-oxoheptanoate as substrate, forming heptanedial” value [2] is reported as “accepted 7-oxoheptanoate as substrate” and the “acceptance of N7-acetyl-7-aminoheptanoate as substrate, forming N7-acetyl-7-aminoheptanal” value [3] is reported as “accepted N7-acetyl-7-aminoheptanoate as substrate”. For the same molecule, the “acceptance of 7-hydroxyheptanoate as substrate, forming 7-hydroxyheptanal” value [4] was “accepted 7-hydroxyheptanoate as substrate”.

B2: esterase from Streptomyces diastatochromogenes: estA from Streptomyces diastatochromogenes classified under EC 3.1.1.1 (protein)
chain: MARFRTRLALLGSAAALAAGAVVPAQLAGAQPAAAAADLQWVALGDSYTAGVIRAAGDAIDYPRDGCERTDRSYPQVIERDLYGLFDLTNVSCGAATIENVSDTPQYPIGRHMPPFSEDPDHPFPPVPPQSEAVGPGTDVITVGVGGNTLGFADILTKCQELGGESGGEGTPCKGALGSGIKARLDKVSQGYDRMLTVLHERGPKAKILTVGYPTVIPENTADCGYGDLTKFGTITQGDLAWLRQDVLEPLNKTIEDSAATQEAADFVNLYAPSQGHSVCDADKWVEGILTVSPNQDPQLSFVHPNASGHRNAADHVEEAMLNAIS
modifications: Streptomyces diastatochromogenes
For B2, the “methyl ester hydrolysis of a C7 compound” value [5] was “affected the methyl ester hydrolysis of a C7 compound”.
